Measurements published in ChEMBL document CHEMBL1129705, “Synthesis of phosphinic acid transition state analogues for the reaction catalysed by kynureninase” (Bioorg Med Chem Lett, 1996).

Substrate: Nc1ccccc1C(=O)C[C@H](N)C(=O)O
Settings: Pseudomonas fluorescens
Description: Compound was evaluated for its binding affinity against kynureninase isolated from Pseudomonas fluorescence

B1: Kynureninase (Homo sapiens), Q16719 (protein)
chain: MEPSSLELPADTVQRIAAELKCHPTDERVALHLDEEDKLRHFRECFYIPKIQDLPPVDLSLVNKDENAIYFLGNSLGLQPKMVKTYLEEELDKWAKIAAYGHEVGKRPWITGDESIVGLMKDIVGANEKEIALMNALTVNLHLLMLSFFKPTPKRYKILLEAKAFPSDHYAIESQLQLHGLNIEESMRMIKPREGEETLRIEDILEVIEKEGDSIAVILFSGVHFYTGQHFNIPAITKAGQAKGCYVGFDLAHAVGNVELYLHDWGVDFACWCSYKYLNAGAGGIAGAFIHEKHAHTIKPALVGWFGHELSTRFKMDNKLQLIPGVCGFRISNPPILLVCSLHASLEIFKQATMKALRKKSVLLTGYLEYLIKHNYGKDKAATKKPVVNIITPSHVEERGCQLTITFSVPNKDVFQELEKRGVVCDKRNPNGIRVAPVPLYNSFHDVYKFTNLLTSILDSAETKN
  Km: 25.6 µM
